Results taken from publication PMC9352680, “A comprehensive thermodynamic model for RNA binding by the Saccharomyces cerevisiae Pumilio protein PUF4”.
Changes are numbered by the printed parent chain. In names and notes the source's numbering stands.

T1: PUF4 RNA-binding domain (Saccharomyces cerevisiae, UniProt P25339 537-888)
T1 sequence: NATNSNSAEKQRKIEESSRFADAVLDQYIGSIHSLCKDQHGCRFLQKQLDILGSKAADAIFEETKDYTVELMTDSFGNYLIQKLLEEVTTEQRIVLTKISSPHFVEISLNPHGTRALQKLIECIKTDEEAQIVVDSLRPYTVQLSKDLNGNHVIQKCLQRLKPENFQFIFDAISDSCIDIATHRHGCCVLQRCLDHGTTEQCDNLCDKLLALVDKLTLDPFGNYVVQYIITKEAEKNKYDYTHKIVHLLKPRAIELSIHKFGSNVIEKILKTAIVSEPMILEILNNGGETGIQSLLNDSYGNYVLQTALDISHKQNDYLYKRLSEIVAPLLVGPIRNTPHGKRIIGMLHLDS

B1: Ic_S2_P4E.1_K4.1_C4.1_H4.1_A4.1_[T5A]_[A6C]_F4.1_[T8A]_[A9G]_T4.1 (ssRNA)
RNA: UUUGAUUAAUAUGAUAUCGUUCUUUCUUGUAACUAGUUCUUUCUCGAUAUCAUAUUAAUCUUU
B2: Ic_S2_P4E.1_K4.1_C4.1_H4.1_A4.1_[A6G]_[T7C]_F4.1_[T8C]_T4.1 (ssRNA)
RNA: B1 RNA with A32U, C33G, U34C, A35C, G36A
B3: Ic_S2_P4E.1_K4.1_C4.1_H4.1_A4.1_[T5A]_[A6T]_[T7C]_F4.1_[T8G]_[A9C]_T4.1 (ssRNA)
RNA: B1 RNA with C33U, U34C, A35G, G36C
B4: Ic_S2_P4E.1_K4.1_C4.1_H4.1_A4.1_[T5A]_[A6T]_[T7C]_F4.1_[A9G]_T4.1 (ssRNA)
RNA: B1 RNA with C33U, U34C, A35U
B5: Ic_S2_P4E.1_K4.1_C4.1_H4.1_A4.1_[T5A]_[A6T]_[T7C]_F4.1_[T8C]_[A9G]_T4.1 (ssRNA)
RNA: B1 RNA with C33U, U34C, A35C
B6: Ic_S2_P4E.1_K4.1_C4.1_H4.1_A4.1_[T5A]_[T7A]_F4.1_[A9C]_T4.1 (ssRNA)
RNA: B1 RNA with C33A, U34A, A35U, G36C
B7: Ic_S2_P4E.1_K4.1_C4.1_H4.1_A4.1_[T5A]_[T7C]_F4.1_[A9G]_T4.1 (ssRNA)
RNA: B1 RNA with C33A, U34C, A35U
B8: Ic_S2_P4E.1_K4.1_C4.1_H4.1_A4.1_[T5A]_[T7C]_F4.1_[T8C]_[A9T]_T4.1 (ssRNA)
RNA: B1 RNA with C33A, U34C, A35C, G36U
B9: Ic_S2_P4E.1_K4.1_C4.1_H4.1_A4.1_[T5A]_[T7C]_F4.1_[T8A]_[A9C]_T4.1 (ssRNA)
RNA: B1 RNA with C33A, U34C, G36C
B10: Ic_S2_P4E.1_K4.1_C4.1_H4.1_A4.1_[A6G]_[T7C]_F4.1_[T8A]_[A9T]_T4.1 (ssRNA)
RNA: B1 RNA with A32U, C33G, U34C, G36U
B11: Ic_S2_P4E.1_K4.1_C4.1_H4.1_A4.1_[A6G]_[T7C]_F4.1_[T8A]_T4.1 (ssRNA)
RNA: B1 RNA with A32U, C33G, U34C, G36A
B12: Ic_S2_P4E.1_K4.1_C4.1_H4.1_A4.1_[T5A]_[T7C]_F4.1_[A9C]_T4.1 (ssRNA)
RNA: B1 RNA with C33A, U34C, A35U, G36C
B13: Ic_S2_P4E.1_K4.1_C4.1_H4.1_A4.1_[T5A]_[A6T]_[T7C]_F4.1_T4.1 (ssRNA)
RNA: B1 RNA with C33U, U34C, A35U, G36A
B14: Ic_S2_P4E.1_K4.1_C4.1_H4.1_A4.1_[T5A]_[A6T]_F4.1_[A9C]_T4.1 (ssRNA)
RNA: B1 RNA with C33U, A35U, G36C
B15: Ic_S2_P4E.1_K4.1_C4.1_H4.1_A4.1_[T5A]_[A6T]_[T7A]_F4.1_[T8A]_T4.1 (ssRNA)
RNA: B1 RNA with C33U, U34A, G36A
B16: Ic_S2_P4E.1_K4.1_C4.1_H4.1_A4.1_[T5A]_[T7C]_F4.1_[A9T]_T4.1 (ssRNA)
RNA: B1 RNA with C33A, U34C, A35U, G36U
B17: Ic_S2_P4E.1_K4.1_C4.1_H4.1_A4.1_[T5A]_[A6T]_[T7C]_F4.1_[T8C]_[A9C]_T4.1 (ssRNA)
RNA: B1 RNA with C33U, U34C, A35C, G36C
B18: Ic_S2_P4E.1_K4.1_C4.1_H4.1_A4.1_[T5A]_[A6T]_[T7C]_F4.1_[T8A]_[A9T]_T4.1 (ssRNA)
RNA: B1 RNA with C33U, U34C, G36U
B19: Ic_S2_P4E.1_K4.1_C4.1_H4.1_A4.1_[T5A]_[A6T]_[T7A]_F4.1_[T8A]_[A9T]_T4.1 (ssRNA)
RNA: B1 RNA with C33U, U34A, G36U
B20: Ic_S2_P4E.1_K4.1_C4.1_H4.1_A4.1_[T5A]_F4.1_[T8A]_[A9G]_T4.1 (ssRNA)
RNA: B1 RNA with C33A
B21: Ic_S2_P4E.1_K4.1_C4.1_H4.1_A4.1_[T5A]_[A6T]_[T7C]_F4.1_[A9T]_T4.1 (ssRNA)
RNA: B1 RNA with C33U, U34C, A35U, G36U
B22: Ic_S2_P4E.1_K4.1_C4.1_H4.1_A4.1_[T5A]_[A6T]_[T7C]_F4.1_[T8C]_[A9T]_T4.1 (ssRNA)
RNA: B1 RNA with C33U, U34C, A35C, G36U
B23: Ic_S2_P4E.1_K4.1_C4.1_H4.1_A4.1_[T5A]_[A6T]_F4.1_[T8A]_[A9T]_T4.1 (ssRNA)
RNA: B1 RNA with C33U, G36U
B24: Ic_S2_P4E.1_K4.1_C4.1_H4.1_A4.1_[A6G]_[T7G]_F4.1_[T8C]_[A9G]_T4.1 (ssRNA)
RNA: B1 RNA with A32U, C33G, U34G, A35C
B25: Ic_S2_P4E.1_K4.1_C4.1_H4.1_A4.1_[A6G]_[T7C]_F4.1_[T8A]_[A9G]_T4.1 (ssRNA)
RNA: B1 RNA with A32U, C33G, U34C
B26: Ic_S2_P4E.1_K4.1_C4.1_H4.1_A4.1_[T5A]_[A6T]_[T7A]_F4.1_[A9G]_T4.1 (ssRNA)
RNA: B1 RNA with C33U, U34A, A35U
B27: Ic_S2_P4E.1_K4.1_C4.1_H4.1_A4.1_[T5A]_[A6T]_[T7A]_F4.1_T4.1 (ssRNA)
RNA: B1 RNA with C33U, U34A, A35U, G36A
B28: Ic_S2_P4E.1_K4.1_C4.1_H4.1_A4.1_[A6G]_[T7C]_F4.1_[T8A]_[A9C]_T4.1 (ssRNA)
RNA: B1 RNA with A32U, C33G, U34C, G36C
B29: Ic_S2_P4E.1_K4.1_C4.1_H4.1_A4.1_[T5A]_[A6T]_[T7A]_F4.1_[T8A]_[A9C]_T4.1 (ssRNA)
RNA: B1 RNA with C33U, U34A, G36C

Molecular target: T1, PUF4 RNA-binding domain
Assay: Mg; RNA-MaP; 20 mM Na-HEPES pH 7.4, 30 mM KOAc, 0.75 mM MgCl2, 0.1% Tween-20, 5% glycerol, 0.1 mg/mL BSA, 2 mM DTT; 25 C; 0.0125-409.6 nM protein
Details: tags: N-His6-TEV cleaved; C-SNAP kept, Cy3B-labelled; label: tethered on chip by stalled RNA polymerase

Binder	Kd [nM]
B1	946
B2	29.3
B3	629
B4	24.7
B5	648
B6	65.2
B7	18.3
B8	242
B9	528
B10	155
B11	239
B12	26.1
B13	2.23
B14	44.7
B15	56
B16	14.6
B17	454
B18	128
B19	94.7
B20	67.7
B21	22
B22	283
B23	36.2
B24	1670
B25	1090
B26	11.1
B27	1.45
B28	848
B29	470
